The values below come from IntAct's records for PubMed 11520064.

B1: Frizzled-8 (Mus musculus), Q61091 (parent)
chain: MEWGYLLEVTSLLAALAVLQRSSGAAAASAKELACQEITVPLCKGIGYNYTYMPNQFNHDTQDEAGLEVHQFWPLVEIQCSPDLKFFLCSMYTPICLEDYKKPLPPCRSVCERAKAGCAPLMRQYGFAWPDRMRCDRLPEQGNPDTLCMDYNRTDLTTAAPSPPRRLPPPPPPGEQPPSGSGHSRPPGARPPHRGGSSRGSGDAAAAPPSRGGKARPPGGGAAPCEPGCQCRAPMVSVSSERHPLYNRVKTGQIANCALPCHNPFFSQDERAFTVFWIGLWSVLCFVSTFATVSTFLIDMERFKYPERPIIFLSACYLFVSVGYLVRLVAGHEKVACSGGAPGAGGAGGAGGAAAAGAGAAGAGASSPGARGEYEELGAVEQHVRYETTGPALCTVVFLLVYFFGMASSIWWVILSLTWFLAAGMKWGNEAIAGYSQYFHLAAWLVPSVKSIAVLALSSVDGDPVAGICYVGNQSLDNLRGFVLAPLVIYLFIGTMFLLAGFVSLFRIRSVIKQQGGPTKTHKLEKLMIRLGLFTVLYTVPAAVVVACLFYEQHNRPRWEATHNCPCLRDLQPDQARRPDYAVFMLKYFMCLVVGITSGVWVWSGKTLESWRALCTRCCWASKGAAVGAGAGGSGPGGSGPGPGGGGGHGGGGGSLYSDVSTGLTWRSGTASSVSYPKQMPLSQV

In this assay the parent is B1. Particulars: with gopc_mouse Gopc.
Consider V685A, for which the “effect of a mutation on the interaction” value is on record as “disrupting interaction”.
